One assay concerns the target gors2_rat Gorasp2 (UniProt Q9R064).
For a further assay, the target named is gors1_rat Gorasp1 (UniProt O35254).
gors1_rat Gorasp1, sequence (O35254 whole entry): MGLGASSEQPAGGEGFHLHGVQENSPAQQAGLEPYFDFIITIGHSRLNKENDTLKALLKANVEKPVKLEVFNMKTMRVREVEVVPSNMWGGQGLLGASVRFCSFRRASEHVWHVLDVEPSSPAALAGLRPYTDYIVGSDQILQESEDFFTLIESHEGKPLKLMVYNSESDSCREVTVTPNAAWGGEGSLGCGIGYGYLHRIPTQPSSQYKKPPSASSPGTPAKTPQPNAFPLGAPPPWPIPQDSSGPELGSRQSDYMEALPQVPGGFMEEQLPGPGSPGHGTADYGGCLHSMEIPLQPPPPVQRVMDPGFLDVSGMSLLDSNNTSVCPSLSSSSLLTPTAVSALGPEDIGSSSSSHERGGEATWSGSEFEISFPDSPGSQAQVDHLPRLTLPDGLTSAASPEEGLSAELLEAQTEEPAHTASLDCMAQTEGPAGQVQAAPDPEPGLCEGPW

Transmembrane emp24 domain-containing protein 2 (Rattus norvegicus (Rat)), Q63524 V200A;V201A, sequence (Q63524 whole entry V200A/V201A, the tested form may be a part): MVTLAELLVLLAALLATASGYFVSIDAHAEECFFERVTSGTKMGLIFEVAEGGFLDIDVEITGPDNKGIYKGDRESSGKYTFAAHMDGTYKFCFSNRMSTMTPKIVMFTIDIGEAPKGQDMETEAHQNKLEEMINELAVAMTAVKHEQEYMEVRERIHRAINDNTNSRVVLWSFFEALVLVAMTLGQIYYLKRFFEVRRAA

Regarding “Transmembrane emp24 domain-containing protein 2 (Rattus norvegicus (Rat)), Q63524 V200A;V201A”, the “effect of a mutation on the interaction” value with gors2_rat Gorasp2 and with gors1_rat Gorasp1 was “decreasing interaction” in each case.

Source of the values: IntAct's records for PubMed 11739402.
